Our source for the protein stability index values is the supplement of paper PMC10567573.

A short description of the series: protein stability index of a GFP-peptide fusion (GPS, HEK-293T) (PSI 1-6); higher = more stable. The following applies: c terminus: a fixed tail appended.

± gives the standard deviation.
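Also: 24-mer peptide tiles fused after GFP, lentivirally expressed, FACS-sorted into six equal bins by GFP/DsRed ratio, decoded by Illumina sequencing, PSI is the read-weighted mean bin number.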

As for GGSAVCASRVKLQHLPAQEQWDRL [PLEKHN1], the protein stability index amounted to 3.08 ± 0.43 (treatment: DMSO) and 3.06 ± 0.29 (treatment: MLN4924 1 uM, 8 h).

In the case of GGYTPDLKMSYSRGLIPVKRGPSS [RBMY1A1], the protein stability index reads like this: (treatment: DMSO) 3.9 ± 0.14; (treatment: MLN4924 1 uM, 8 h) 3.8 ± 0.28.

Take GHAAPGTDAGKAFCMFYAVLGIPL [KCNK9]: the protein stability index is, setting by setting: (treatment: DMSO) 2.81 ± 0.19; (treatment: MLN4924 1 uM, 8 h) 2.84 ± 0.39.

As to GIETLESVPIIGGFWETIFGNRIK [PHTF1], the protein stability index by setting is: (treatment: DMSO) 2.67 ± 0.41; (treatment: MLN4924 1 uM, 8 h) 2.81 ± 0.18.

Regarding GKEPLDPDPSHSPSDKVGRADAHL [TOR1AIP2], the protein stability index runs as follows: (treatment: DMSO) 5.07 ± 0.17; (treatment: MLN4924 1 uM, 8 h) 5.32 ± 0.057.

As for GKEQGQNLARQWNNCAFLESSAKS [RAP1B], the protein stability index was found to be 4.1 ± 0.17 (treatment: DMSO) and 4.13 ± 0.14 (treatment: MLN4924 1 uM, 8 h).

Regarding GKGSIKELFPTGKQLEPLVAPLAD [VPS39], the protein stability index came to 4.08 ± 0.26 (treatment: DMSO) and 4.08 ± 0.11 (treatment: MLN4924 1 uM, 8 h).

Turning to GKQAPRKKAQGKTQQNRKLTDFYP [KMT5A], the protein stability index by setting is: (treatment: DMSO) 3.64 ± 0.42; (treatment: MLN4924 1 uM, 8 h) 4.21 ± 0.41.

Turning to GLGASTAEISARTMQSMFAKNFHV [PTPRD], the protein stability index runs as follows: (treatment: DMSO) 2.38 ± 0.26; (treatment: MLN4924 1 uM, 8 h) 2.56 ± 0.35.

Take GLIISGPILQEGMDEEKLKQLNCV [DLC1]: the protein stability index runs as follows: (treatment: DMSO) 3.52 ± 0.2; (treatment: MLN4924 1 uM, 8 h) 3.42 ± 0.3.

On to GLLEAPGLQPVVFVLFLFAYLVTV [OR3A1], for which the protein stability index is, setting by setting: (treatment: DMSO) 2.53 ± 0.98; (treatment: MLN4924 1 uM, 8 h) 2.61 ± 0.8.

With GLSDPGKIKRLRSQVQVSLEDYIN [HNF4A], the protein stability index runs as follows: (treatment: DMSO) 2.78 ± 0.34; (treatment: MLN4924 1 uM, 8 h) 2.93 ± 0.18.

For the sequence GLVLLKHALGSPEKVKACQGQYET [TBC1D10A], the protein stability index is 2.74 ± 0.33 (treatment: DMSO) and 2.94 ± 0.047 (treatment: MLN4924 1 uM, 8 h).

GNISGEFWLGNEALHSLTQAGDYS [TNXB]: the protein stability index is, setting by setting: (treatment: DMSO) 3.21 ± 0.091; (treatment: MLN4924 1 uM, 8 h) 3.36 ± 0.34.

As for GPCKNCKMIMDTAGNDPYCFVEFH [TIA1], the protein stability index runs as follows: (treatment: DMSO) 2.2 ± 0.31; (treatment: MLN4924 1 uM, 8 h) 2.25 ± 0.35.

Take GPGGRRAGEPGHSPADYLRFQDLV [DYRK1B]: the protein stability index is 3.07 ± 0.35 (treatment: DMSO) and 3.27 ± 0.6 (treatment: MLN4924 1 uM, 8 h).

As to GPWQLNVFVCRVSAVLFYVNMYVS [P2RY14], the protein stability index (treatment: DMSO) was determined as 2.77 ± 0.36 and the protein stability index (treatment: MLN4924 1 uM, 8 h) amounted to 2.72 ± 0.79.

GRLGRRDEDAGLPRPVQLDETHPY [NEK8]: the protein stability index worked out at 4.46 ± 0.066 (treatment: DMSO) and 4.7 ± 0.1 (treatment: MLN4924 1 uM, 8 h).

On to GRNRLYHDGKNQPSKTYPAFLEPD [SPSB1], for which the protein stability index was 4.13 ± 0.12 (treatment: DMSO) and 4.37 ± 0.072 (treatment: MLN4924 1 uM, 8 h).

Take GRVEVLKNGEWGTVCDDKWDLVSA [LOXL2]: the protein stability index was 4.2 ± 0.32 (treatment: DMSO) and 3.56 ± 0.64 (treatment: MLN4924 1 uM, 8 h).

As to GSGPIQLWQFLLELLTDKSCQSFI [ETS1], the protein stability index is, setting by setting: (treatment: DMSO) 1.88 ± 0.67; (treatment: MLN4924 1 uM, 8 h) 2.94 ± 1.2.

As to GSLEKALPIIQSNQVSSNSWGIAG [DLC1], the protein stability index (treatment: DMSO) was 3.35 ± 0.3 and the protein stability index (treatment: MLN4924 1 uM, 8 h) came out at 3.6 ± 0.2.

In turn, GSTLGGSSYSSCYSFGSGGGYGSS [KRT17] showed a protein stability index (treatment: DMSO) of 2.77 ± 0.23 and a protein stability index (treatment: MLN4924 1 uM, 8 h) of 2.98 ± 0.6.

Regarding GSVAVVEAECEKSSATTYFWYREA [SLC6A17], the protein stability index was found to be 2.81 ± 0.48 (treatment: DMSO) and 2.62 ± 0.35 (treatment: MLN4924 1 uM, 8 h).

Turning to GTADGADLRTVDPETQARLEALLE [ANKRD17], the protein stability index by setting is: (treatment: DMSO) 4.42 ± 0.15; (treatment: MLN4924 1 uM, 8 h) 4.5 ± 0.21.

As for GTSTLLVWVGVIRYLTFFHNYNIL [MCOLN1], the protein stability index is, setting by setting: (treatment: DMSO) 3.35 ± 0.16; (treatment: MLN4924 1 uM, 8 h) 2.99 ± 0.2.

Turning to GVFGFFATIVFATDFYLIFNDVAK [CMTM3], the protein stability index is, setting by setting: (treatment: DMSO) 2.75 ± 0.27; (treatment: MLN4924 1 uM, 8 h) 3.44 ± 0.43.

On to GVTGWCTGFIFQKVGKLAATAVGG [FUNDC2], for which the protein stability index is 2.17 ± 0.048 (treatment: DMSO) and 2.48 ± 0.74 (treatment: MLN4924 1 uM, 8 h).

On to GVVQALIVGYAFHFPHLLSPQIQR [TMEM175], for which the protein stability index is 3.53 ± 0.28 (treatment: DMSO) and 3.25 ± 0.25 (treatment: MLN4924 1 uM, 8 h).

Regarding GYFAFMLFRKRLGSMILAFRPRPN [GDAP1], the protein stability index is, setting by setting: (treatment: DMSO) 2.69 ± 0.79; (treatment: MLN4924 1 uM, 8 h) 2.37 ± 0.57.

In turn, HCNVSNILHMNGSQSSTYRGTYEQ [ZNF396] returned a protein stability index (treatment: DMSO) of 3.17 ± 0.21 and a protein stability index (treatment: MLN4924 1 uM, 8 h) of 3.24 ± 0.088.

On to HCTGNEATLAACTSNGWGVTDCKH [LOXL2], for which the protein stability index (treatment: DMSO) was determined as 3.98 ± 0.24 and the protein stability index (treatment: MLN4924 1 uM, 8 h) came to 4.21 ± 0.28.

With HCTVKLRQTTGLMEYCLEVIKEND [TRIM9], the protein stability index was determined as 3.07 ± 0.29 (treatment: DMSO) and 3.32 ± 0.37 (treatment: MLN4924 1 uM, 8 h).

For HHPEVPQRILRIMCRLEELGLAGR [HDAC6], the protein stability index came out at 2.09 ± 0.088 (treatment: DMSO) and 2.52 ± 0.7 (treatment: MLN4924 1 uM, 8 h).

For the sequence HLEIDDMYTPAYGDFDFDEVKFPN [MYORG], the protein stability index was 4.49 ± 0.12 (treatment: DMSO) and 4.26 ± 0.19 (treatment: MLN4924 1 uM, 8 h).

Regarding HLFLLGYSDGADDTFAAYTREQLY [MCOLN1], the protein stability index turned out to be 2.08 ± 0.29 (treatment: DMSO) and 2.35 ± 0.18 (treatment: MLN4924 1 uM, 8 h).
